Patent US20220127328A1 (FATE THERAPEUTICS, published 2022)

Target: T1, NKG2C (transgenic, expressed on the surface of iPSC-derived NK cells) (Homo sapiens (Human), UniProt P26717 1-231)
T1 construct: After 2A cleavage a C-terminal 2A remnant may stay on the chain; also called transgenic NKG2C
Assay: FACS of surface NKG2C on iNK cells from the NKG2C only iPSC line; pairing inferred from surface expression
Text: After the engineering step, iPSCs were sorted for the desired phenotype. […] Engineered iPSCs were differentiated into CD34+ hematopoietic progenitor cells and subsequently differentiated into CD56+ NK cells (iNK cells) using a stepwise differentiation and expansion strategy. Surface NKG2C expression was low on unmodified iNK cells (about 5-10%) as determined by FACS.

T1 sequence (P26717 whole entry): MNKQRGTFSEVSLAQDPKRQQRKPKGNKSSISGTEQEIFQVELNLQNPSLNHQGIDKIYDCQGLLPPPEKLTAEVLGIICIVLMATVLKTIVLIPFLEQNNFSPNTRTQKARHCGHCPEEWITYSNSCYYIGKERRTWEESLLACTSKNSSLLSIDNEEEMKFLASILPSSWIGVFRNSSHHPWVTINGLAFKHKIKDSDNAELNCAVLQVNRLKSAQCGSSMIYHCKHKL

Row | Binder | binding result
1 | endogenous CD94 (receptor, human, UniProt Q13241 1-179, looked up, whole, on cells) MAVFKTTLWRLISGTLGIICLSLMSTLGILLKNSFTKLSIEPAFTPGPNIELQKDSDCCSCQEKWVGYRCNCYFISSEQKTWNESRHLCASQKSSLLQLQNTDELDFMSSSQQFYWIGLSYSEEHTAWLWENGSALSQYLFPSFETFNTKNCIAYNPNGNALDESCEDKNRYICKQQLI | binds
2 | endogenous DAP12 (other, human, UniProt O43914 22-113, looked up, whole, on cells) LRPVQAQAQSDCSCSTVSPGVLAGIVMGDLVLTVLIALAVYFLGRLVPRGRGAAEAATRKQRITETESPYQELQGQRSDVYSDLNTQRPYYK | binds
